Experiments:
recombinant human BTN3A1 = biological target: T1, recombinant human BTN3A1 (human, UniProt O00481 30-254); assay: SPR
T1 construct: Soluble form of the antigen used in SPR; also called rhBTN3A1; recombinant BTN3A1 protein
Method: (§1) SPR measures the interactions between two or more biomolecules. In capture kinetics analysis, an antibody is immobilized onto a gold-plated prism. The immobilized antibody is referred to as the ligand. An injection of antigen, referred to as the analyte, is carried out, often as a concentration series. The captured analytes are removed from the sensor chip surface using a regenerating agent, for example a low pH or high ionic strength solution. If investigating binding to several analytes, the antibodies are recaptured from solution before each analyte titration series. The instrument records the changes in refractive indexes (due to the accumulation or depletion of mass) in time and plots the results as sensorgrams.
(§2) Affinity measurements with respect to BTN3A, PD-1 and PD-L1 were performed by SPR technology, for instance in a Carterra LSA Platform instrument using a soluble form of the antigen as the analyte and the antibody as the ligand. Binding was also assessed through in cellulo binding assays, on cell lines (e.g. HEK293T cells) genetically modified to express the targets of interest or genetically modified to extinct target expression.
(§3) The 69 produced bsAbs and control mAbs were also evaluated for their binding affinity to recombinant proteins by SPR assays. The equilibrium dissociation constant (KD) was then calculated for constructs showing detectable binding.

recombinant human PD-1 = biological target: T2, recombinant human PD-1 (human, UniProt Q15116 25-167, limits assumed); assay: SPR
T2 construct: Soluble antigen in SPR; also called rhPD-1
T2 sequence (Q15116 25-167 limits assumed): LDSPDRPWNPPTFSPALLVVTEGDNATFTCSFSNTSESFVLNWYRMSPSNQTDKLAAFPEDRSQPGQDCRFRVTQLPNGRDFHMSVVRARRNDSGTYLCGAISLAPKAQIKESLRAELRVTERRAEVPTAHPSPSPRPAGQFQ
Method: as §1, §2, §3

[1] = biological target: T3, BTN3A1 at the surface of HEK-BTN3A1 cells (human, UniProt O00481 30-513); assay: flow cytometry, HEK-BTN3A1 cells
T3 construct: HEK 293T BTN2A/BTN3A KO cells transduced with a BTN3A1 expressing vector
T3 sequence (O00481 30-513 limits assumed): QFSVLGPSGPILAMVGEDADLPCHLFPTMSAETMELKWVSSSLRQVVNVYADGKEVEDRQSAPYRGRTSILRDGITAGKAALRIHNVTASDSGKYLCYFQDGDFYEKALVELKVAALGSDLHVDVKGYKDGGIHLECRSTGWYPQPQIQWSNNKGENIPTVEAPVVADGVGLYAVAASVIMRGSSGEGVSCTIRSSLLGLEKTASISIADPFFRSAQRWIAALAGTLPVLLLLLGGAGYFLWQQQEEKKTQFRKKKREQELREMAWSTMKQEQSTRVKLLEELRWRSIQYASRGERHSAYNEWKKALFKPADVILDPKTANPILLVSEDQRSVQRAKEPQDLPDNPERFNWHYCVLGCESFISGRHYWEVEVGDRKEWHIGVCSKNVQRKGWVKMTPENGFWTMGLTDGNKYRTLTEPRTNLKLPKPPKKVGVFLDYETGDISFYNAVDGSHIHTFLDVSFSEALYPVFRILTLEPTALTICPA

[2] = biological target: T4, PD-1 at the surface of Jurkat-PD-1 cells (human, UniProt Q15116 25-288); assay: flow cytometry, Jurkat-PD-1 cells
T4 construct: whole, on cells
T4 sequence (Q15116 25-288): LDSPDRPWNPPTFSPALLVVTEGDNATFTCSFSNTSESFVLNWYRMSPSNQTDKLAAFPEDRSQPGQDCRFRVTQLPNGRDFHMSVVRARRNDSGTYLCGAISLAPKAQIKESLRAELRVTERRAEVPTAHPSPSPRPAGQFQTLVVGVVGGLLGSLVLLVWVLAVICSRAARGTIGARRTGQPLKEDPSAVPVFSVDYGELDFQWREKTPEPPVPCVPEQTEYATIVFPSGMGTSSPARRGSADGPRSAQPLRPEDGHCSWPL

[3] = biological target: T4, PD-1 at the surface of Jurkat-PD-1 cells; assay: cell-based or functional assay

T1 sequence (O00481 30-254 limits assumed): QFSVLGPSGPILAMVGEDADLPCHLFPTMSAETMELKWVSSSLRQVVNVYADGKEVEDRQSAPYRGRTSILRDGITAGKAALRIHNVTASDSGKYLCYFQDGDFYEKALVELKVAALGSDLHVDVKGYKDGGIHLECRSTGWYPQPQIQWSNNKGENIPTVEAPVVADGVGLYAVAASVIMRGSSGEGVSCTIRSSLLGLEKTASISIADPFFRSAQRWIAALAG

Row | Kd (recombinant human BTN3A1) | Kd (recombinant human PD-1) | MFI at 10 nM [1] | MFI at 100 nM [1] | MFI at 10 nM [2] | MFI at 100 nM [2] | Jurkat-PD-1 activation at 10 nM [3] | Jurkat-PD-1 activation at 100 nM [3] | Binder
1 | 0.163 nM | 0.928 nM | 224000 MFI | 992000 MFI | 216000 MFI | 367000 MFI |  |  | bsAb022 (bispecific antibody, IgG anti-BTN3A, scFv anti-PD-1) heavy: QVQLVQSGVEVKKPGASVKVSCKASGYTFTNYYMYWVRQAPGQGLEWMGGINPSNGGTNFNEKFKNRVTLTTDSSTTTAYMELKSLQFDDTAVYYCARRDYRFDMGFDYWGQGTTVTVSSGGGGSGGGGSGGGGSGGGGSEIVLTQSPATLSLSPGERATLSCRASKGVSTSGYSYLHWYQQKPGQAPRLLIYLASYLESGVPARFSGSGSGTDFTLTISSLEPEDFAVYYCQHSRDLPLTFGGGTKVEIKGGGGSGGGGSGGGGSGGGGSQVQLVQSGAEVKKPGASVKLSCKASGYIFTRYYMYWVKQRPGQGLEWIGEINPNNGGTKFNEKFKNRATLTVDKSISTAYMELSRLRSDDTAVYYCSREDDYDGTPFAMDYWGQGTLVTVSSASTKGPSVFPLAPSSKSTSGGTAALGCLVKDYFPEPVTVSWNSGALTSGVHTFPAVLQSSGLYSLSSVVTVPSSSLGTQTYICNVNHKPSNTKVDKRVEPKSCDKTHTCPPCPAPEFEGGPSVFLFPPKPKDTLMISRTPEVTCVVVDVSHEDPEVKFNWYVDGVEVHNAKTKPREEQYNSTYRVVSVLTVLHQDWLNGKEYKCKVSNKALPASIEKTISKAKGQPREPQVYTLPPSREEMTKNQVSLTCLVKGFYPSDIAVEWESNGQPENNYKTTPPVLDSDGSFFLYSKLTVDKSRWQQGNVFSCSVMHEALHNHYTQKSLSLSPG light: not shown
2 | 0.067 nM | 0.786 nM | 584000 MFI | 1.18e+06 MFI | 194000 MFI | 340000 MFI | 1.6 fold-change to medium | 6 fold-change to medium | bsAb033 (bispecific antibody, IgG anti-BTN3A, one scFv anti-PD-1; not shown: IgG1 CH1-hinge-CH2-CH3) heavy (part 1 of 2): QVQLVQSGAEVKKPGASVKLSCKASGYIFTRYYMYWVKQRPGQGLEWIGEINPNNGGTKFNEKFKNRATLTVDKSISTAYMELSRLRSDDTAVYYCSREDDYDGTPFAMDYWGQGTLVTVSS heavy (part 2 of 2): GGGGSGGGGSGGGGSGGGGSQVQLVQSGVEVKKPGASVKVSCKASGYTFTNYYMYWVRQAPGQGLEWMGGINPSNGGTNFNEKFKNRVTLTTDSSTTTAYMELKSLQFDDTAVYYCARRDYRFDMGFDYWGQGTTVTVSSGGGGSGGGGSGGGGSGGGGSEIVLTQSPATLSLSPGERATLSCRASKGVSTSGYSYLHWYQQKPGQAPRLLIYLASYLESGVPARFSGSGSGTDFTLTISSLEPEDFAVYYCQHSRDLPLTFGGGTKVEIK heavy: QVQLVQSGAEVKKPGASVKLSCKASGYIFTRYYMYWVKQRPGQGLEWIGEINPNNGGTKFNEKFKNRATLTVDKSISTAYMELSRLRSDDTAVYYCSREDDYDGTPFAMDYWGQGTLVTVSS light: not shown
3 | 0.187 nM | 2.1 nM | 1.14e+06 MFI | 1.81e+06 MFI | 294000 MFI | 283000 MFI |  |  | bsAb039 (bispecific antibody, one Fab arm anti-PD-1, two scFv anti-BTN3A; not shown: IgG1 CH1-hinge-CH2-CH3; CH2-CH3 (Fc)) heavy (part 1 of 2): QVQLVQSGVEVKKPGASVKVSCKASGYTFTNYYMYWVRQAPGQGLEWMGGINPSNGGTNFNEKFKNRVTLTTDSSTTTAYMELKSLQFDDTAVYYCARRDYRFDMGFDYWGQGTTVTVSS heavy (part 2 of 2): GGGGSGGGGSGGGGSGGGGSDIQMTQSPSSLSASVGDRVTITCHASQNINVWLSWYQQKPGKAPKLLIYKASNLHTGVPSRFTGSGSGTDFTFTISSLQPEDIATYYCQQGQTYPYTFGQGTKLEIKGGGGSGGGGSGGGGSGGGGSQVQLVQSGAEVKKPGASVKLSCKASGYIFTRYYMYWVKQRPGQGLEWIGEINPNNGGTKFNEKFKNRATLTVDKSISTAYMELSRLRSDDTAVYYCSREDDYDGTPFAMDYWGQGTLVTVSS heavy: GGGGSGGGGSGGGGSGGGGSDIQMTQSPSSLSASVGDRVTITCHASQNINVWLSWYQQKPGKAPKLLIYKASNLHTGVPSRFTGSGSGTDFTFTISSLQPEDIATYYCQQGQTYPYTFGQGTKLEIKGGGGSGGGGSGGGGSGGGGSQVQLVQSGAEVKKPGASVKLSCKASGYIFTRYYMYWVKQRPGQGLEWIGEINPNNGGTKFNEKFKNRATLTVDKSISTAYMELSRLRSDDTAVYYCSREDDYDGTPFAMDYWGQGTLVTVSS light: EIVLTQSPATLSLSPGERATLSCRASKGVSTSGYSYLHWYQQKPGQAPRLLIYLASYLESGVPARFSGSGSGTDFTLTISSLEPEDFAVYYCQHSRDLPLTFGGGTKVEIKRTVAAPSVFIFPPSDEQLKSGTASVVCLLNNFYPREAKVQWKVDNALQSGNSQESVTEQDSKDSTYSLSSTLTLSKADYEKHKVYACEVTHQGLSSPVTKSFNRGEC
4 | 0.393 nM | 0.984 nM | 494000 MFI | 1.24e+06 MFI | 187000 MFI | 424000 MFI |  |  | bsAb053 (bispecific antibody, IgG anti-PD-1, one scFv anti-BTN3A; not shown: IgG1 CH1-hinge-CH2-CH3) heavy (part 1 of 2): QVQLVQSGVEVKKPGASVKVSCKASGYTFTNYYMYWVRQAPGQGLEWMGGINPSNGGTNFNEKFKNRVTLTTDSSTTTAYMELKSLQFDDTAVYYCARRDYRFDMGFDYWGQGTTVTVSS heavy (part 2 of 2): GGGGSGGGGSGGGGSGGGGSQVQLVQSGAEVKKPGASVKLSCKASGYIFTRYYMYWVKQRPGQGLEWIGEINPNNGGTKFNEKFKNRATLTVDKSISTAYMELSRLRSDDTAVYYCSREDDYDGTPFAMDYWGQGTLVTVSSGGGGSGGGGSGGGGSGGGGSDIQMTQSPSSLSASVGDRVTITCHASQNINVWLSWYQQKPGKAPKLLIYKASNLHTGVPSRFTGSGSGTDFTFTISSLQPEDIATYYCQQGQTYPYTFGQGTKLEIK heavy: QVQLVQSGVEVKKPGASVKVSCKASGYTFTNYYMYWVRQAPGQGLEWMGGINPSNGGTNFNEKFKNRVTLTTDSSTTTAYMELKSLQFDDTAVYYCARRDYRFDMGFDYWGQGTTVTVSS light: EIVLTQSPATLSLSPGERATLSCRASKGVSTSGYSYLHWYQQKPGQAPRLLIYLASYLESGVPARFSGSGSGTDFTLTISSLEPEDFAVYYCQHSRDLPLTFGGGTKVEIKRTVAAPSVFIFPPSDEQLKSGTASVVCLLNNFYPREAKVQWKVDNALQSGNSQESVTEQDSKDSTYSLSSTLTLSKADYEKHKVYACEVTHQGLSSPVTKSFNRGEC
5 | 0.154 nM | 1.1 nM | 177000 MFI | 669000 MFI | 110000 MFI | 358000 MFI |  |  | bsAb025 (bispecific antibody, IgG anti-BTN3A, scFab anti-PD-1) heavy: QVQLVQSGVEVKKPGASVKVSCKASGYTFTNYYMYWVRQAPGQGLEWMGGINPSNGGTNFNEKFKNRVTLTTDSSTTTAYMELKSLQFDDTAVYYCARRDYRFDMGFDYWGQGTTVTVSSASTKGPSVFPLAPSSKSTSGGTAALGCLVKDYFPEPVTVSWNSGALTSGVHTFPAVLQSSGLYSLSSVVTVPSSSLGTQTYICNVNHKPSNTKVDKKVEPKSCDKTHTGGSSGSGSGSTGTSSSGTGTSAGTTGTSASTSGSGSGGGGGSGGGGSAGGEIVLTQSPATLSLSPGERATLSCRASKGVSTSGYSYLHWYQQKPGQAPRLLIYLASYLESGVPARFSGSGSGTDFTLTISSLEPEDFAVYYCQHSRDLPLTFGGGTKVEIKRTVAAPSVFIFPPSDEQLKSGTASVVCLLNNFYPREAKVQWKVDNALQSGNSQESVTEQDSKDSTYSLSSTLTLSKADYEKHKVYACEVTHQGLSSPVTKSFNRGECGGGGSGGGGSGGGGSGGGGSQVQLVQSGAEVKKPGASVKLSCKASGYIFTRYYMYWVKQRPGQGLEWIGEINPNNGGTKFNEKFKNRATLTVDKSISTAYMELSRLRSDDTAVYYCSREDDYDGTPFAMDYWGQGTLVTVSSASTKGPSVFPLAPSSKSTSGGTAALGCLVKDYFPEPVTVSWNSGALTSGVHTFPAVLQSSGLYSLSSVVTVPSSSLGTQTYICNVNHKPSNTKVDKRVEPKSCDKTHTCPPCPAPEFEGGPSVFLFPPKPKDTLMISRTPEVTCVVVDVSHEDPEVKFNWYVDGVEVHNAKTKPREEQYNSTYRVVSVLTVLHQDWLNGKEYKCKVSNKALPASIEKTISKAKGQPREPQVYTLPPSREEMTKNQVSLTCLVKGFYPSDIAVEWESNGQPENNYKTTPPVLDSDGSFFLYSKLTVDKSRWQQGNVFSCSVMHEALHNHYTQKSLSLSPG light: not shown

Source: patent US20260265379A1 (IMCHECK THERAPEUTICS, published 2026)
